Patent US7657380
Substitutions are numbered along the chain they refer to.

T1: human CD30 (commercial, conjugated to digoxigenin) (human, UniProt P28908 19-379, limits assumed, conjugated to digoxigenin (DIG))
T1 sequence (looked up): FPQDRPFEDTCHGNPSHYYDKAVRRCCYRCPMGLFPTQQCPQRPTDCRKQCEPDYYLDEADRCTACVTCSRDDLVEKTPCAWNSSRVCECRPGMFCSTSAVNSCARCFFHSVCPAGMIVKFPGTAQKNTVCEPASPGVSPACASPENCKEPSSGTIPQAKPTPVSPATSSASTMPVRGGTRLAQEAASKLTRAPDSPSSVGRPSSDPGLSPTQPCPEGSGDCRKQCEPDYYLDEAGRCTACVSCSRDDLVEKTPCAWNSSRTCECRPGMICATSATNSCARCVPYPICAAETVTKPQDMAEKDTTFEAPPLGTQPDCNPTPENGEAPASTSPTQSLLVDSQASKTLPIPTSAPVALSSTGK

B1: AC10 H3.1/L3 (antibody, IgG1, name in Kabat numbering, V domains shown)
VH: EIQLVQSGPEVKKPGASVKVSCKASGYTFTDYYITWVRQAPGQGLEWMGWIYPGSGNTKYNEKFQGRFVFSVDTSASTAYLQISSLKAEDTAVYFCANYGNYWFAYWGQGTLVTVSS
VL: DIVLTQSPDSLAVSLGERATINCKASQSVDFDGDSYMNWYQQKPGQPPKVLIYAASNLESGIPARFSGSGSGTDFTLTINSLEAEDAATYYCQQSNEDPWTFGGGTKVEIK
B2: AC10 H3.17/L3 (antibody, IgG1, name in Kabat numbering, V domains shown)
VH: B1 VH with E1Q, T35H
VL: B1 VL
B3: AC10 H3.49/L3 (antibody, IgG1, name in Kabat numbering, V domains shown)
VH: B1 VH with E1Q, A97T
VL: B1 VL
B4: AC10 H3.46/L3 (antibody, IgG1, name in Kabat numbering, V domains shown)
VH: B1 VH with E1Q, V93M
VL: B1 VL
B5: AC10 H3.30/L3 (antibody, IgG1, name in Kabat numbering, V domains shown)
VH: B1 VH with E1Q, S55N
VL: B1 VL
B6: AC10 H3.39/L3 (antibody, IgG1, name in Kabat numbering, V domains shown)
VH: B1 VH with E1Q, N61D
VL: B1 VL
B7: AC10 H3.32/L3 (antibody, IgG1, name in Kabat numbering, V domains shown)
VH: B1 VH with E1Q, K59I
VL: B1 VL
B8: AC10 H3.28/L3 (antibody, IgG1, name in Kabat numbering, V domains shown)
VH: B1 VH with E1Q, P53V
VL: B1 VL
B9: AC10 H3.36/L3 (antibody, IgG1, name in Kabat numbering, V domains shown)
VH: B1 VH with E1Q, N61S
VL: B1 VL
B10: AC10 H3.33/L3 (antibody, IgG1, name in Kabat numbering, V domains shown)
VH: B1 VH with E1Q, K59N
VL: B1 VL
B11: AC10 H3.7/L3 (antibody, IgG1, name in Kabat numbering, V domains shown)
VH: B1 VH with E1Q, A24V
VL: B1 VL
B12: AC10 H3.23/L3 (antibody, IgG1, name in Kabat numbering, V domains shown)
VH: B1 VH with E1Q, W50R
VL: B1 VL
B13: AC10 H3.44/L3 (antibody, IgG1, name in Kabat numbering, V domains shown)
VH: B1 VH with E1Q, V72R
VL: B1 VL
B14: AC10 H3.34/L3 (antibody, IgG1, name in Kabat numbering, V domains shown)
VH: B1 VH with E1Q, N61A
VL: B1 VL
B15: AC10 H3.18/L3 (antibody, IgG1, name in Kabat numbering, V domains shown)
VH: B1 VH with E1Q, T35N
VL: B1 VL
B16: AC10 H3.24/L3 (antibody, IgG1, name in Kabat numbering, V domains shown)
VH: B1 VH with E1Q, Y52N
VL: B1 VL
B17: AC10 H3.48/L3 (antibody, IgG1, name in Kabat numbering, V domains shown)
VH: B1 VH with E1Q, F95Y
VL: B1 VL
B18: AC10 H3.50/L3 (antibody, IgG1, name in Kabat numbering, V domains shown)
VH: B1 VH with E1Q, A97V
VL: B1 VL
B19: AC10 H3.19/L3 (antibody, IgG1, name in Kabat numbering, V domains shown)
VH: B1 VH with E1Q, T35S
VL: B1 VL
B20: AC10 H3.37/L3 (antibody, IgG1, name in Kabat numbering, V domains shown)
VH: B1 VH with E1Q, N61T
VL: B1 VL
B21: AC10 H3.8/L3 (antibody, IgG1, name in Kabat numbering, V domains shown)
VH: B1 VH with E1Q, D31G
VL: B1 VL
B22: AC10 H3.16/L3 (antibody, IgG1, name in Kabat numbering, V domains shown)
VH: B1 VH with E1Q, T35G
VL: B1 VL
B23: AC10 H3.20/L3 (antibody, IgG1, name in Kabat numbering, V domains shown)
VH: B1 VH with E1Q, G44A
VL: B1 VL
B24: AC10 H3.21/L3 (antibody, IgG1, name in Kabat numbering, V domains shown)
VH: B1 VH with E1Q, G44R
VL: B1 VL
B25: AC10 H3.13/L3 (antibody, IgG1, name in Kabat numbering, V domains shown)
VH: B1 VH with E1Q, I34L
VL: B1 VL
B26: AC10 H3.9/L3 (antibody, IgG1, name in Kabat numbering, V domains shown)
VH: B1 VH with E1Q, D31S
VL: B1 VL
B27: AC10 H3.52/L3 (antibody, IgG1, name in Kabat numbering, V domains shown)
VH: B1 VH with E1Q, N98H
VL: B1 VL
B28: AC10 H3.12/L3 (antibody, IgG1, name in Kabat numbering, V domains shown)
VH: B1 VH with E1Q, Y33W
VL: B1 VL
B29: AC10 H3.45/L3 (antibody, IgG1, name in Kabat numbering, V domains shown)
VH: B1 VH with E1Q, T91M
VL: B1 VL
B30: AC10 H3.38/L3 (antibody, IgG1, name in Kabat numbering, V domains shown)
VH: B1 VH with E1Q, N61V
VL: B1 VL
B31: AC10 H3.42/L3 (antibody, IgG1, name in Kabat numbering, V domains shown)
VH: B1 VH with E1Q, V72L
VL: B1 VL
B32: AC10 H3.41/L3 (antibody, IgG1, name in Kabat numbering, V domains shown)
VH: B1 VH with E1Q, Q65T
VL: B1 VL
B33: AC10 H3.4/L3 (antibody, IgG1, name in Kabat numbering, V domains shown)
VH: B1 VH with E1Q, I2V
VL: B1 VL
B34: AC10 H3.14/L3 (antibody, IgG1, name in Kabat numbering, V domains shown)
VH: B1 VH with E1Q, I34M
VL: B1 VL
B35: AC10 H3.3/L3 (antibody, IgG1, name in Kabat numbering, V domains shown)
VH: B1 VH with E1Q, I2M
VL: B1 VL
B36: AC10 H3.43/L3 (antibody, IgG1, name in Kabat numbering, V domains shown)
VH: B1 VH with E1Q, V72M
VL: B1 VL
B37: AC10 H3.40/L3 (antibody, IgG1, name in Kabat numbering, V domains shown)
VH: B1 VH with E1Q, E62Q
VL: B1 VL
B38: AC10 H3.22/L3 (antibody, IgG1, name in Kabat numbering, V domains shown)
VH: B1 VH with E1Q, W50I
VL: B1 VL
B39: AC10 H3.2/L3 (antibody, IgG1, name in Kabat numbering, V domains shown)
VH: B1 VH with E1Q, I2L
VL: B1 VL
B40: AC10 H3.6/L3 (antibody, IgG1, name in Kabat numbering, V domains shown)
VH: B1 VH with E1Q, A16T
VL: B1 VL
B41: AC10 H3.27/L3 (antibody, IgG1, name in Kabat numbering, V domains shown)
VH: B1 VH with E1Q, P53A
VL: B1 VL
B42: AC10 H3.5/L3 (antibody, IgG1, name in Kabat numbering, V domains shown)
VH: B1 VH with E1Q, P9A
VL: B1 VL
B43: AC10 H3.29/L3 (antibody, IgG1, name in Kabat numbering, V domains shown)
VH: B1 VH with E1Q, S55D
VL: B1 VL
B44: AC10 H3.11/L3 (antibody, IgG1, name in Kabat numbering, V domains shown)
VH: B1 VH with E1Q, Y33G
VL: B1 VL

These binders were tested against T1, human CD30 (commercial, conjugated to …) (assay: AlphaScreen competition).
With B1 the “Fold IC50 vs H3/L3” value was 1 fold. For B2, the “Fold IC50 vs H3/L3” value was 0.04 fold. With B3 the “Fold IC50 vs H3/L3” value was 0.38 fold. With B4 the “Fold IC50 vs H3/L3” value was 1.39 fold. In the case of B5, the “Fold IC50 vs H3/L3” value is reported as 1.45 fold. In the case of B6, the “Fold IC50 vs H3/L3” value is reported as 1 fold. With B7 the “Fold IC50 vs H3/L3” value was 1.09 fold. B8 was tested, and the “Fold IC50 vs H3/L3” value was 1.34 fold. In the case of B9, the “Fold IC50 vs H3/L3” value is reported as 1.24 fold. B10 was tested, and the “Fold IC50 vs H3/L3” value was 0.5 fold. For B11, the “Fold IC50 vs H3/L3” value was 4.45 fold. B12 was tested, and the “Fold IC50 vs H3/L3” value was 0.16 fold. In the case of B13, the “Fold IC50 vs H3/L3” value is reported as 1.76 fold. B14 was tested, and the “Fold IC50 vs H3/L3” value was 1.3 fold. B15 was tested, and the “Fold IC50 vs H3/L3” value was 0.13 fold. With B16 the “Fold IC50 vs H3/L3” value was 0.03 fold. With B17 the “Fold IC50 vs H3/L3” value was 1.6 fold. For B18, the “Fold IC50 vs H3/L3” value was 1.4 fold. For B19, the “Fold IC50 vs H3/L3” value was 1.11 fold. B20 was tested, and the “Fold IC50 vs H3/L3” value was 1.01 fold. B21 was tested, and the “Fold IC50 vs H3/L3” value was 1.4 fold. In the case of B22, the “Fold IC50 vs H3/L3” value is reported as 0.15 fold. B23 was tested, and the “Fold IC50 vs H3/L3” value was 2.04 fold. B24 was tested, and the “Fold IC50 vs H3/L3” value was 2.6 fold. In the case of B25, the “Fold IC50 vs H3/L3” value is reported as 1.52 fold. For B26, the “Fold IC50 vs H3/L3” value was 1.65 fold. B27 was tested, and the “Fold IC50 vs H3/L3” value was 1.24 fold. For B28, the “Fold IC50 vs H3/L3” value was 0 fold. For B29, the “Fold IC50 vs H3/L3” value was 1.14 fold. In the case of B30, the “Fold IC50 vs H3/L3” value is reported as 1.14 fold. For B31, the “Fold IC50 vs H3/L3” value was 0.66 fold. In the case of B32, the “Fold IC50 vs H3/L3” value is reported as 1.38 fold. In the case of B33, the “Fold IC50 vs H3/L3” value is reported as 1.28 fold. For B34, the “Fold IC50 vs H3/L3” value was 1.62 fold. With B35 the “Fold IC50 vs H3/L3” value was 0.68 fold. For B36, the “Fold IC50 vs H3/L3” value was 0.88 fold. With B37 the “Fold IC50 vs H3/L3” value was 1.83 fold. B38 was tested, and the “Fold IC50 vs H3/L3” value was 0.01 fold. For B39, the “Fold IC50 vs H3/L3” value was 2.76 fold. For B40, the “Fold IC50 vs H3/L3” value was 1.13 fold. B41 was tested, and the “Fold IC50 vs H3/L3” value was 2 fold. For B42, the “Fold IC50 vs H3/L3” value was 1.29 fold. With B43 the “Fold IC50 vs H3/L3” value was 1.81 fold. For B44, the “Fold IC50 vs H3/L3” value was 0.73 fold.
